# Laboratory results from patent US20060235215A1 (published 2006).
# T1: Beta-Expansin EXPB2, prey clone aa 80-207 (Oryza sativa, UniProt O24230 80-207)
# T1 construct: prey; AD fusion; input trait library; also called OsEXPB2; PN19902
# T1 sequence: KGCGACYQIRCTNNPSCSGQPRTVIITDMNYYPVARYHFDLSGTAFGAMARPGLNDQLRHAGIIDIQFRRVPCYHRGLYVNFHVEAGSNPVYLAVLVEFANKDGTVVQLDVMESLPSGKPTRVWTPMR
# T2: Pyruvate orthophosphate dikinase-like PN20674, prey clone aa 64-263 (Oryza sativa, UniProt Q6AVA8 64-263)
# T2 construct: prey; AD fusion; input trait library
# T2 sequence: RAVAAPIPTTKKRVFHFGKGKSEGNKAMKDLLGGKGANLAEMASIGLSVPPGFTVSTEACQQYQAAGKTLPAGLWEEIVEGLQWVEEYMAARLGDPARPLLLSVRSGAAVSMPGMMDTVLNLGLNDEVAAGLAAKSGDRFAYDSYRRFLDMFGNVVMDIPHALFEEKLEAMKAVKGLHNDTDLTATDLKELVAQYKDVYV
# T3: Pyruvate orthophosphate dikinase-like PN20674, prey clone aa 71-298 (Oryza sativa, UniProt Q6AVA8 71-298)
# T3 construct: prey; AD fusion; input trait library
# T3 sequence: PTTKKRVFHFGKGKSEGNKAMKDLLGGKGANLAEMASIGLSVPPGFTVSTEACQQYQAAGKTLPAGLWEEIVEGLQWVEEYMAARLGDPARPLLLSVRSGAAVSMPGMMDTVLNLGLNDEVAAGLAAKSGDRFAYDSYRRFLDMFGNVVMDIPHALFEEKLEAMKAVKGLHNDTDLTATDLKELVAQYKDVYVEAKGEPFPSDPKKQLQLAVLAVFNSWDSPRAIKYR
# T4: Novel Protein 23053, Fragment, Similar to Arabidopsis Putative Na+-Dependent Inorganic Phosphate … (Oryza sativa, UniProt Q8W0H5 141-320)
# T4 construct: prey; AD fusion; input trait library; two clones; also called OsPN23053
# T4 sequence: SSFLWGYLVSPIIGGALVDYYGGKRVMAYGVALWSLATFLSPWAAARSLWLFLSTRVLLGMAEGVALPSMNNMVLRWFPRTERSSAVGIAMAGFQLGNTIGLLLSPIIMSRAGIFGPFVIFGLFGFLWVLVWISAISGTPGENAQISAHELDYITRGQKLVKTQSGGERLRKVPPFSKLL
# T5: Beta-Expansin EXPB2, prey clone aa 80-218 (Oryza sativa, UniProt O24230 80-218)
# T5 construct: prey; AD fusion; input trait library; two clones; also called OsEXPB2; PN19902
# T5 sequence: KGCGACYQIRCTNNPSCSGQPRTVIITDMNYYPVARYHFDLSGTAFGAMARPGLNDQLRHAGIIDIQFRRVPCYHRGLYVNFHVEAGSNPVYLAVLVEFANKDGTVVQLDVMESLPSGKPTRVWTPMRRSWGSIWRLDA
# T6: O. sativa Putative 14-3-3 Protein, prey clone aa 53-259 (Oryza sativa, UniProt Q06967 53-259)
# T6 construct: prey; AD fusion; input trait library; four clones; also called Os008938-3209; PN20215
# T6 sequence: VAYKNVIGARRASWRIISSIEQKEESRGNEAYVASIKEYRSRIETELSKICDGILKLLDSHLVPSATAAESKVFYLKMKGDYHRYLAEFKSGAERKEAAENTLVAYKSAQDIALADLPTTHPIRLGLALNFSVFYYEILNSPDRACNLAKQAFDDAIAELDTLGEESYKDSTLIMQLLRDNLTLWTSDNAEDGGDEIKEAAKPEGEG
# T7: Novel Protein PN23485, Similar to Hordeum vulgare Coproporphyrinogen III Oxidase, chloroplast precursor, prey … (Oryza sativa, UniProt Q7XPL2 165-318)
# T7 construct: prey; AD fusion; output trait library; also called OsPN23485
# T7 sequence: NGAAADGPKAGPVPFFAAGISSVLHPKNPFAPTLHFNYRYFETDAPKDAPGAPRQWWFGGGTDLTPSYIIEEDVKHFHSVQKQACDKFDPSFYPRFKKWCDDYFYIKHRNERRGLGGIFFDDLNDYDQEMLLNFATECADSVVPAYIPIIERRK
# T8: O. sativa Catalase A Isozyme, prey clone aa 332-433 (Oryza sativa, UniProt P0C549 332-433)
# T8 construct: prey; AD fusion; input trait library; also called OsCATA; PN20899
# T8 sequence: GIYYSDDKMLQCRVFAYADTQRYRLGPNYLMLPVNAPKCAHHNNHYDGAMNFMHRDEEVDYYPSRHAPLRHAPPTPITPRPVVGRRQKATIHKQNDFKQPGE
# T9: O. sativa Cellulose Synthase Catalytic Subunit, RSW1-Like, prey clone aa 411-489 (Oryza sativa, UniProt A2Y0X2 411-489)
# T9 construct: prey; AD fusion; input trait library; also called OsCS; PN19707
# T9 sequence: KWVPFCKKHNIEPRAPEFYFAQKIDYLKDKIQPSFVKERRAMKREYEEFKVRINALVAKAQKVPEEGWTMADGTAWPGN
# T10: Novel Protein PN22154, Similar to A. thaliana Glutamyl Aminopeptidase, prey clone aa 390-562 (Oryza sativa, UniProt Q6Z6L4 390-562)
# T10 construct: prey; AD fusion; input trait library; also called OsPN22154
# T10 sequence: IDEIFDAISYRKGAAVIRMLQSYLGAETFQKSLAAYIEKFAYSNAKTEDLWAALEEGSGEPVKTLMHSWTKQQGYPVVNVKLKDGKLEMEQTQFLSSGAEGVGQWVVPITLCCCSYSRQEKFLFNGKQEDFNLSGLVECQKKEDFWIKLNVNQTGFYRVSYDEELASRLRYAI
# B1: Hypothetical Protein 006819-2510, Similar to Hemerocallis Senescence-Related Protein 5, bait fragment aa 1-273 (other)
# chain: MAFRLSNSLLGILNAVTFLLSVPVLGGGIWLATRADGTECERYFSAPVIAFGVFLLLVSLAGLVGACCRVNCLLWFYLVAMFVLIVVLFCFTVFAFVVTNKGAGEAVSGRGYKEYRLGDYSNWLQKRMENSKNWNRIRSCLQDSKVCKKLQDKNWDRTQFFKADLSPLESGCCKPPSSCNFLYVSGTNWTKVPTNSSDPDCNTWVDDGTQLCYNCQSCKAGAVATLKRDWKRVAVVCIVFLVFIVIVYSLGCCAFRNNRRDNRGAYRGAAWKG
# notes: bait; also called Os006819-2510; PN20462
# Tests used:
# Assay in all cases: yeast two-hybrid
# [1] = target: T1, Beta-Expansin EXPB2, prey clone aa …
# [2] = target: T11, O. sativa Histone Deacetylase HD1, prey clone aa 90-221 (Oryza sativa, UniProt Q7Y0Y8 90-221)
# T11 construct: prey; AD fusion; output trait library; also called OsAAK01712; PN24059
# T11 sequence (Q7Y0Y8 90-221): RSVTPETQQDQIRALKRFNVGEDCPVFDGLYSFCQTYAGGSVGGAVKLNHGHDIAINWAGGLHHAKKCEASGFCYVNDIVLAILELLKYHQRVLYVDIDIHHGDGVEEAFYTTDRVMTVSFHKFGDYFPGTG
# [3] = target: T2, Pyruvate orthophosphate dikinase-like …
# [4] = target: T3, Pyruvate orthophosphate dikinase-like …
# [5] = target: T4, Novel Protein 23053, Fragment, Similar …
# [6] = target: T5, Beta-Expansin EXPB2, prey clone aa …
# [7] = target: T6, O. sativa Putative 14-3-3 Protein, prey …
# [8] = target: T7, Novel Protein PN23485, Similar to …
# [9] = target: T12, O. sativa Chloroplast Ribulose Bisphosphate Carboxylase, Large Chain, prey clone aa 287-462 (Oryza sativa, UniProt P0C510 287-462)
# T12 construct: prey; AD fusion; input trait library; also called OsRBCL; PN23426
# T12 sequence (P0C510 287-462): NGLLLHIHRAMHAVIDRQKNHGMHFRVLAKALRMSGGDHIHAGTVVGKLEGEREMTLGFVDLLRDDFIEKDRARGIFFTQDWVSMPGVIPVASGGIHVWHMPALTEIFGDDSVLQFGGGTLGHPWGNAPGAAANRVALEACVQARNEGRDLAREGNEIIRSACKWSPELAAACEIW
# [10] = target: T8, O. sativa Catalase A Isozyme, prey …
# Experimental: (§1) Yeast carrying the target gene construct was combined with yeast carrying the activation domain library. The two yeast strains mated to form diploid yeast and were plated on media that selected for expression of one or more Ga14p-responsive reporter genes. Thus, both hybrid proteins (i.e., the target “bait” protein and the activation domain “prey” protein) were expressed in a yeast reporter strain where an interaction between the test proteins results in transcription of the reporter genes […]. Colonies that arose after incubation were selected for further characterization. The activation domain plasmid was isolated from each colony obtained in the two-hybrid search. The sequence of the insert in this construct was obtained by sequence analysis (e.g., Sanger's dideoxy nucleotide chain termination method; see Ausubel et al., 1988, including updates up to 2002). Thus, the identity of positives obtained from these searches was determined by sequence analysis against proprietary and public (e.g., GENBANK®) nucleic acid and protein databases.
# (§2) This example provides newly characterized rice proteins interacting with a rice chitinase, class III (OsCHIB1), and with rice cellulose synthase catalytic subunit, RSW1-like (OsCS). An automated, high-throughput yeast two-hybrid assay technology (provided by Myriad Genetics Inc., Salt Lake City, Utah) was used to search for protein interactions with the chitinase and cellulose synthase bait proteins.
# [11] = target: T9, O. sativa Cellulose Synthase Catalytic …
# Experimental: as §1, §2
# [12] = target: T10, Novel Protein PN22154, Similar to A. …
# Experimental: as §1, §2
# [13] = target: B1
binder,measurement,setting,value
"O. sativa Defender Against Apoptotic Death 1, bait clone aa 1-115 (other, bait; text says OsDAD1 has 114 aa; also called OsDAD1; PN20251) MPRATSDAKLLIQSLGKAYAATPTNLKIIDLYVVFAVATALIQVVYMGIVGSFPFNSFLSGVLSCIGTAVLAVCLRIQVNKDNKEFKDLPPERAFADFVLCNLVLHLVIMNFLG",binding result,[1],binds
"Hypothetical Protein 006819-2510, Similar to Hemerocallis Senescence-Related Protein 5, bait fragment aa 1-150 (other, bait; also called Os006819-2510; PN20462) MAFRLSNSLLGILNAVTFLLSVPVLGGGIWLATRADGTECERYFSAPVIAFGVFLLLVSLAGLVGACCRVNCLLWFYLVAMFVLIVVLFCFTVFAFVVTNKGAGEAVSGRGYKEYRLGDYSNWLQKRMENSKNWNRIRSCLQDSKVCKKL",binding result,[2],binds
"Elicitor responsive protein, bait fragment aa 50-145 (other, bait; also called OsERP; PN20696) PEWNETFMFSVTHNATELIIKLMDSDSGTDDDFVGEATISLEAIYTEGSIPPTVYNVVKEEEYRGEIKVGLTFTPEDDRDRGLSEEDIGGWKQSS",binding result,[3],binds
same,binding result,[4],binds
"O. sativa Defender Against Apoptotic Death 1, bait clone aa 30-115 (other, bait; text says OsDAD1 has 114 aa; also called OsDAD1; PN20251) DLYVVFAVATALIQVVYMGIVGSFPFNSFLSGVLSCIGTAVLAVCLRIQVNKDNKEFKDLPPERAFADFVLCNLVLHLVIMNFLG",binding result,[5],binds
same,binding result,[6],binds
"O. sativa Chilling-Inducible Protein CAA90866, bait clone aa 100-250 (other, bait; also called OsCAA90866; PN20311) GEMTERVAQEDRIPVLKASQDHLKEFISICEALELISEDELEISRQKNLIPWQIEEHRRLHGSSAKRLQKQSSRIKERKERRRRHESSCLSAPIELGGDLLRMMEKEREGMVSYYLIGSIEGFDLLDMLKKEEEIVPAVKEGKRRMVMHLL",binding result,[7],binds
B1,binding result,[8],binds
"O. sativa 14-3-3 Protein Homolog GF14-c, bait fragment aa 1-150 (other, bait; also called OsGF14-c; PN12464) MSREENVYMAKLAEQAERYEEMVEYMEKVAKTVDVEELTVEERNLLSVAYKNVIGARRASWRIVSSIEQKEEGRGNEEHVTLIKEYRGKIEAELSKICDGILKLLDSHLVPSSTAAESKVFYLKMKGDYHRYLAEFKTGAERKEAAESTM",binding result,[9],binds
"O. sativa Chitinase, Class III, bait fragment aa 10-200 (enzyme, bait; also called OsCHIB1; PN19651) YIGAQFTGVRFSDVPVNPGLSFHFILAFAIDYFMATQSSKPAPANGVFAPYWDTANLSPAAVAAAKAAHPNLSVILALGGDTVQNTGVNATFAPTSSVDAWVRNAADSVSGLIDAYGLDGVDVDYEHFAAGVDTFVECIGRLLTELKARHPNIATSIAPFEHPVVQRYYQPLWRRYAGVIDYVNFQFYGYG",binding result,[10],binds
same,binding result,[11],binds
same,binding result,[12],binds
"Novel Protein PN23226, Callose synthase, prey clone aa 345-432 (other, prey; AD fusion; output trait library; also called OsPN23226) WFMSNQETSFVTIGQRVLANPLRVRFHYGHPDIFDRLFHLTRGGVSKASKIINLSEDIFAGFNSTLREGNVTHHEYMQVGKGRDVGLN",binding result,[13],binds
